For the test, the target named is VaERF16-GFP (Vitis amurensis 'Shuang You').

Turning to VaMYB306-HA (natural protein), the dual-luciferase assay in tobacco leaves: activation of the VaPDF1.2 promoter (LUC/REN) by 62-SK-VaERF16 and 62-SK-VaMYB306 co-expressed (untagged full-length effectors) was 3.5 fold.
